In assay [1] the target is complement C3b (UniProt P01024). The experiment in a line: SPR; C3b amine-coupled to a CM5 chip; CFB as analyte at 1.0-4.0 μM in 10 mM HEPES pH 7.4, 50 mM NaCl, 3 mM MgCl2, 1 mM CFD, 0.005% surfactant P20 (activated C3 convertase C3bBb formation); two state interaction model. On the technique in general: SPR reads the build-up and loss of mass on a sensor chip optically.
Assay [2] shares this target. Nature of the assay: SPR; activated C3 convertase C3bBb formation: C3b amine-coupled to a CM5 chip; CFB flowed at 1.0-4.0 uM with complement factor D (1 mM [sic] CFD); 10 mM HEPES pH 7.4, 50 mM NaCl, 3 mM MgCl2, 0.005% surfactant P20; Biacore.
Assay [3] shares this target. Nature of the assay: SPR; C3b amine-coupled to a CM5 chip; CFB flowed at 0.125-4.0 μM, 30 μl/min; 10 mM HEPES pH 7.4, 50 mM NaCl, 3 mM MgCl2, 0.005% surfactant P20; without CFD (proenzyme C3bB formation); two state interaction model.
For assay [4] the target is unchanged. Nature of the assay: SPR; proenzyme C3bB formation: C3b amine-coupled to a CM5 chip; CFB flowed at 0.125-4.0 uM, 30 ul/min; 10 mM HEPES pH 7.4, 50 mM NaCl, 3 mM MgCl2, 0.005% surfactant P20; without CFD; Biacore.

Usually Kd stands for the free concentration of one partner at which half of the binding sites on the other are occupied at equilibrium, for simple one-to-one binding. Broadly, the koff is the first-order rate constant of dissociation. A high value points to a short-lived complex. As usually defined, the kon is the second-order rate constant of association. A higher kon goes with faster complex formation. As to “complement factor B, R32W variant (32W) (from UniProt P00751 26-764) (natural protein)”, the Kd with complement C3b [1] came to 318 nM; with complement C3b [3] it was 2250 nM. For the same substance, the koff worked out at 0.00236 s⁻¹ with complement C3b [2] and 0.015 s⁻¹ with complement C3b [4]. Also, the kon is 7420 M⁻¹ s⁻¹ in the assay with complement C3b [2] and 6700 M⁻¹ s⁻¹ with complement C3b [4].

For the substance “complement factor B, wild type (32R) (from UniProt P00751 26-764) (natural protein)”, the Kd in the assay with complement C3b [1] amounted to 77.3 nM; with complement C3b [3], 610 nM; with complement C3b [4], 608 nM. Further, the values for the koff with complement C3b [2] and with complement C3b [4] were 0.00247 s⁻¹ and 0.0088 s⁻¹, respectively. For the same substance, the values for the on-rate (kon) with complement C3b [2] and with complement C3b [4] were 32000 M⁻¹ s⁻¹ and 14500 M⁻¹ s⁻¹, respectively.

The values are drawn from article PMC9606215.
